To fix the notation:
B1: H1H257P: anti-hANGPTL4 antibody, HCVR/LCVR SEQ ID NOs 18/20 (antibody, V domains shown)
VH: EVQLVESGGGLVQPGGSLRLSCAASGFTFSSYDMHWVRQVAGKGLEWVSAIGTAGDTYYPVSVKGRFTISRENAKNSLYLHMNSLRAGDTAVYFCARGDSRNYYVGDYFDYWGQGTLVTVSS
VL: DIQMTQSPSTLSASVGDRVTITCRASQSISRWLAWYQQKPGKAPKVLIYQASNLESGVPSRFSGSGSGTEFTLTISSLQPDDFATYYCQQYDSYSRAFGRGTKVEIK
B2: H1H292P: anti-hANGPTL4 antibody, HCVR/LCVR SEQ ID NOs 162/164 (antibody, V domains shown)
VH: EVQLVESGGGLVQPGGSLRLSCVASGFTFSSYDMHWVRQLPGKGLEWVSAIGVAGDTYYPASVKGRFTISRENAKNSLYLQMNSLRAGDTAVYYCARGDSGNYYDGDYFDFWGQGTLVTVSS
VL: DIQMTQSPSTLSASVGDRVTITCRASQSINRWLAWYQQKPGKAPKVLIYKASNLESGVPSRFSGSGSGTEFTLTISSLQPDDFATYYCQQYDSYFRTFGQGTKVEIK
B3: H1H291P: anti-hANGPTL4 antibody, HCVR/LCVR SEQ ID NOs 138/140 (antibody, V domains shown)
VH: EVQLVESGGGLVQPGGSLRLSCAASGFTFSTYDMHWVRQGLGKGLEWVSAIGSAGDTYYPGSVKGRFTISRDNAKSSLFLHMNSLRAGDTALYYCARGDSRNYFVGDYFDYWGQGTLVTVSS
VL: DIQMTQSPSTLSASIGDRVTITCRASQSISSWLAWYQQKPGKAPKVLIYKASSLEAGVPSRFSGSGSGTEFTLTISSLQPDDFASYYCQQYSSYSRTFGQGTKVEIK
B4: H1H285P: anti-hANGPTL4 antibody, HCVR/LCVR SEQ ID NOs 114/116 (antibody, V domains shown)
VH: EVQLVESGGGLVQPGGSLRLSCAASGFTFSRYDMHWVRQVTGKGLEWVSGIGTAGDTYYPGSVKGRFTISRENDKNSLYLQMNSLRVGDTAVYYCARGDSKNYYVGDYFDYWGQGTLVTVSS
VL: DIQMTQSPSTLSASVGDRVTFTCRASHSIGNWLAWYQQKPGKAPKVLIYEASSLEDGVPSRFSGSGSGTEFTLTISSLQPDDFATYYCQQYDTYFRTFGQGTKVEIK
B5: H1H638P: anti-hANGPTL4 antibody, HCVR/LCVR SEQ ID NOs 258/260 (antibody, V domains shown)
VH: EVQLVESGGGLVQPGGSLRLSCVASGFTFSSYDMHWVRQVAGKGLEWVAAIGTAGDTYYPVSVKGRFTISRENAKNSLSLHMNSLRAGDTAVYYCARGDSRNYYVGDYFDYWGQGTLVTVSS
VL: DIQMTQSPSTLSASVGDRVTITCRASQSISRWLAWYQQKPGKAPKVLIYKASSLKSGVPSRFSGSGSGTEFTLTISSLQSDDFATYYCQQYNSYSRTFGQGTKVEIK
B6: H1H295P: anti-hANGPTL4 antibody, HCVR/LCVR SEQ ID NOs 186/188 (antibody, V domains shown)
VH: EVQLVESGGGLVQPGGSLRLSCAASGFTFSTYDMHWVRQAPGKGLEWVSAIGSAGDTYYPGSVKGRFTISRDNAKSSLFLQMNSLRAGDTALYYCARGDSRNYFVGDYFDYWGQGTLVTVSS
VL: DIQMTQSPSTLSASVGDRVTITCRASQSIGTWLAWYQQKPGKAPKILIYKASSLEGGVPSRFSGSGSGTEFTLTISSLQPDDFANYYCQQYNSFYRTFGQGTKVEIK
B7: H1H624P: anti-hANGPTL4 antibody, HCVR/LCVR SEQ ID NOs 210/212 (antibody, V domains shown)
VH: EVQLVESGGGLVQPGGSLRLSCAASEFIFSSYAMNWVRQAPGKGLEWVSVISGSGDSKYYADSVKGRFTISRDNSKNTLYLQMNSLRVEDTAVYYCAKDGKDRYGFYYNFYGMDVWGQGTTVTVS
VL: DIQMTQSPSFLSASVGDRVTITCWASQGISSYLAWYQQKPGKAPKILIYAASTLQSGVPSRFSASGSGTEFTLTISSLQPEDFATYHCQQLNSYPFTFGPGTKVDIK
B8: H1H236N2: anti-hANGPTL4 antibody, HCVR/LCVR SEQ ID NOs 458/394 (antibody, V domains shown)
VH: EVQLVESGGGLVQPGRSLRLSCAASGFTFDDYAMHWVRQAPGKGLEWVSGISWNSGSIVYADSVKGRFTISRDNAKNSLYLQMNSLISEDTALYYCAKDESSSSGNWFDPWGQGTLVTVSS
VL: EVVMTQSPATLSVSPGERATLSCRASQSVSSNLAWYQQKPGQAPRLLIYGASTRATGIPARFSGSGSGTEFTLTISSLQSEDFAVYYCQEYNNWITFGQGTRLEIK
B9: H1H653P: anti-hANGPTL4 antibody, HCVR/LCVR SEQ ID NOs 306/308 (antibody, V domains shown)
VH: QVQLVESGGGVVQPGRSLRLSCVASGFTFSSYGMHWVRQAPGKGLEWMAVIWYDGSNKYFADSVKDRFTISRDNSKNTLYLQMNTLRPDDTAVYYCVKADAPLLIYGVDVWGQGTTVTVS
VL: DIQMTQSPSSLSASVGDRVTITCRASQGIRNDLGWYQEKPGKAPKRLIYFASSLQSGVPSRFSGSGSGTEFTLTISSLQPEDFATYYCLQHNSYPYTFGQGTKLEIK

The subject of this assay is C57BL/6 mice given hANGPTL4-mFc. Type of assay: in vivo. Particulars: antibody 5 mg/kg s.c.; 24 h later hANGPTL4-mFc 25 μg/mouse i.v.; bled 30 min after; mean±SEM. On the procedure: In another set of experiments, selected anti-hANGPTL4 antibodies were tested for their ability to inhibit hANGPTL4-induced increase of triglyceride levels. Measurements of total cholesterol, LDL, NEFA-C and HDL were also made. Briefly, C57BL/6 mice were put into groups of five mice each for each antibody tested. Antibodies were administered at 5 mg/kg dose by subcutaneous injection. Control group I, i.e., mice that received neither anti-hANGPTL4 antibodies nor hANGPTL4, were administered with PBS. Twenty-four hours post-injection of antibody, hANGPTL4-mFc (SEQ ID NO:480) was administered (i.v.) at a dose of 25 μg/mouse to each antibody group. Mice were bled at 30 min after hANGPTL4-mFc injection and lipid levels were determined by ADVIA® 1650 Chemistry System (Siemens). Averages were calculated for each of the measurements of triglycerides, total cholesterol (Total-C), LDL, NEFA-C and HDL for each antibody or control group. Levels of circulating anti-hANGPTL4 antibodies (Serum Ab) were also determined using a standard ELISA assay. Briefly, plates were coated with a goat anti-human Fc antibody (Sigma-Aldrich) to capture Serum Ab. Serum was then added to the plates and captured anti-hANGPTL4 antibodies were detected by chemiluminescence using a horseradish peroxidase (HRP) conjugated goat anti-human IgG antibody (Sigma-Aldrich). Control I: Mice that received PBS, but neither anti-hANGPTL4 antibodies nor hANGPTL4-mFc. Control II: Mice that received a human antibody specific for CD20 (i.e., the mAb having the sequence of 2F2 clone disclosed in US 2008/0260641) and hANGPTL4-mFc.
In turn, B1 showed an HDL of 41.38 ± 3.24 mg/dL, an LDL of 5.30 ± 0.36 mg/dL, an NEFA-C of 0.97 ± 0.03 mg/dL and a Total-C of 84.40 ± 3.53 mg/dL. The molecule further yielded a Triglycerides of 115.80 ± 6.43 mg/dL.
The matching figures for B2: 39.44 ± 1.68 mg/dL, 3.96 ± 0.15 mg/dL, 1.06 ± 0.06 mg/dL, 74.40 ± 2.11 mg/dL and 85.80 ± 7.00 mg/dL.
The matching figures for B3: 38.24 ± 2.14 mg/dL, 3.84 ± 0.12 mg/dL, 1.11 ± 0.04 mg/dL, 71.20 ± 3.26 mg/dL and 111.00 ± 7.51 mg/dL.
On to B4, for which the HDL turned out to be 42.20 ± 0.91 mg/dL, the LDL is 3.72 ± 0.44 mg/dL, the NEFA-C was 0.97 ± 0.06 mg/dL and the Total-C is on record as 76.40 ± 1.75 mg/dL. The Triglycerides amounted to 91.40 ± 11.99 mg/dL.
On the same counts, the results for B5 are 39.54 ± 1.65 mg/dL, 4.14 ± 0.18 mg/dL, 1.06 ± 0.05 mg/dL, 73.80 ± 2.78 mg/dL and 102.80 ± 10.75 mg/dL.
The matching figures for B6: 39.70 ± 3.13 mg/dL, 4.04 ± 0.40 mg/dL, 1.12 ± 0.04 mg/dL, 74.60 ± 4.82 mg/dL and 104.80 ± 9.44 mg/dL.
On the same counts, the results for B7 are 35.40 ± 2.68 mg/dL, 4.36 ± 0.92 mg/dL, 0.86 ± 0.07 mg/dL, 72.80 ± 5.49 mg/dL and 81.20 ± 9.26 mg/dL.
B8: the HDL is 33.78 ± 1.13 mg/dL, the LDL is 4.26 ± 0.25 mg/dL, the NEFA-C stood at 1.11 ± 0.18 mg/dL and the Total-C stood at 72.40 ± 1.81 mg/dL. This molecule also yielded a Triglycerides of 151.80 ± 9.26 mg/dL.
With B9, the HDL is 40.10 ± 2.72 mg/dL, the LDL was 3.84 ± 0.32 mg/dL, the NEFA-C came to 1.04 ± 0.1 mg/dL and the Total-C worked out at 74.20 ± 4.49 mg/dL. This molecule came in with a Triglycerides of 88.00 ± 13.52 mg/dL.

Values taken from US9120851B2, “Human antibodies to human angiopoietin-like protein 4” (Regeneron Pharmaceuticals, Inc., priority 2009, dated 2015).
